Results on three molecules are retold here after US9393309B2, “Self-gelatinizable nucleic acid” (Kyoto University, priority 2011, dated 2016).

Data set [1] in a line: Melting temperature (Tm) from melting curve, absorbance at 260 nm. The following applies: sodium concentration of 5 mM. The format is physicochemical. Here is the method: Each DNA preparation was prepared in the same manner as in Example 1 by using the sequences in Table 1. The absorbance of polypodna or other DNA preparations at 260 nm was measured by using a Shimadzu UV-1600 PC spectrometer (Kyoto, Japan) equipped with a TMSPC-8 temperature controller 18. The melting temperature (Tm) was obtained from the melting curve at the sodium concentration of 5 mM in each preparation.

Data set [2] relates to RAW264.7 cells. In words: Release of TNF-α from RAW264.7 cells (ELISA). The following applies: 0.5, 1 or 2 μg/ml, 8 hours. The format is cell-based, murine. On the procedure: In a RPMI1640 medium to which 10% heat inactivated FBS, 0.15% sodium bicarbonate, 100 units/ml penicillin, […] streptomycin and 2 mML-glutamine were added, murine macrophage-like RAW264.7 cells were proliferated in humidified air containing 5% CO2 at 37° C. Subsequently, cells were seeded on a 24-well or 96-well culture plate at a density of 5×10^5 cells/well, and cultured for 24 hours before use.
The RAW264.7 cells were seeded on a 24-well plate at a density of 2.5×10^5 cells/well, and incubated for 24 hours before treatment. Then, ssDNA, dsDNA, or several kinds of polypodnas diluted in 0.5 ml of Opti-MEM were added to the cells at a final concentration of 0.5, 1 or 2 μg/ml. The cells were incubated for 8 hours, the supernatant was recovered and stored at −70° C. before use. The concentrations of TNF-α and IL-6 in the supernatant were measured by Enzyme-Linked Immunosorbent Assay (ELISA) using an OptEIA™ set (Pharmingen, San Diego, Calif., USA).
The same experiment as in Example 22 was carried out except that each poolypodna preparation was prepared in the same manner as in Example 1 by using the sequences in Table 1. However, the added DNA was equal amount in each case.

Data set [3] has as its system RAW264.7 cells. In words: Uptake of cholesterol-modified Tetrapodna by cells. The format is cell-based. Here is the method:
In order to examine applicability of nucleic acid having a modifying group, Tetrapodna using cholesterol-modified DNA was prepared. […] Furthermore, uptake of each Tetrapodna by RAW264.7 cells was measured.

Data set [4] relates to atopic dermatitis model mouse. Kind of data set: Application to atopic dermatitis model mouse. It is filed as in vivo. To be noted: vs Tetrapodna without cholesterol modification.
Another data set deals with splenocytes. Kind of data set: IFN-γ production by splenocytes after immunization with OVA in gel. To be noted: 100 μg OVA + 100 μg DNA, spleen on Day 14, vs only OVA. It is filed as in vivo, mouse.
The nature of data set [5]: Temperature conditions for gel formation. It is filed as physicochemical. The following applies: NaCl 150 mM. Here is the method:
Furthermore, we investigated a possibility that temperature conditions are also involved in gelation. Tetrapodna (4-18-18) (SEQ ID NOs.: 2, 4, 5 and 6), Hexapodna (4-18-18) (SEQ ID NOs.: 2, 3, 4, 7, 9 and 10) and Tetrapodna (8-16-16) (SEQ ID NOs.: 22, 23, 24 and 25) were used to examine the temperature conditions for allowing a gel be present or a sol to be present by fixing the NaCl concentration at 150 mM and changing the DNA concentration variously.

For data set [6], the system named is mouse dendritic cell DC2.4. In words: Stimulation of dendritic cells by gel. The format is cell-based. The following applies: gel brought into contact with DC2.4.
A short description of data set [7]: Percentage of remaining gels with the passage of time. It is filed as physicochemical. To be noted: DNA 0.5 mM. Here is the method:
Gels were formed by adjusting the NaCl concentration at 150 mM in an aqueous solution containing Tetrapodna (12-14-14) (SEQ ID NOs.: 30, 31, 32 and 33) at a DNA concentration of 0.1 mM, 0.25 mM or 0.5 mM, and the percentage of the remaining gels was measured with the passage of time. The results are shown in a graph in the left upper side of FIG. 17.
Gels were formed in conditions at a certain DNA concentration (0.5 mM) and a certain NaCl concentration (150 mM), and the percentage of the remaining gels was measured with the passage of time by using Tetrapodna (respectively, SEQ ID NOs.: 2, 4, 5 and 6, SEQ ID NOs.: 18, 19, 20 and 21, SEQ ID NOs.: 22, 23, 24 and 25, SEQ ID NOs.: 26, 27, 28 and 29, as well as SEQ ID NOs.: 30, 31, 32 and 33) having various lengths of the cohesive protruding end (4, 6, 8, 10 or 12 bases). The results are shown in a graph in the left lower side of FIG. 17. […] When 12 hours had passed, the percentage of the remaining gels became about 50%.
Gels were formed by variously changing the NaCl concentrations (5 mM, 50 mM, 100 mM or 150 mM) of an aqueous solution containing Tetrapodna (12-14-14) (SEQ ID NOs.: 30, 31, 32 and 33) at a DNA concentration of 0.5 mM, and the percentage of the remaining gels was measured with the passage of time. The results are shown in a graph in the right upper side of FIG. 17. […] At a low salt concentration (5 mM), almost all the formed gels became in a sol state when about 6 hours had passed. When the salt concentration was increased to 50 mM, solation tendency was weakened, a change from a gel into a sol occurred moderately (about 40% when 12 hours had passed).
The percentage of the remaining gels was measured with the passage of time in the same manner as in (8-3) except that Tetrapodna (4-18-18) (SEQ ID NOs.: 2, 4, 5 and 6) was used instead of Tetrapodna (12-14-14) (SEQ ID NOs.: 30, 31, 32 and 33). The results are shown in a graph in the right lower side of FIG. 17. […] In (8-3), Tetrapodna (12-14-14) (the length of the cohesive protruding end is 12 bases) was used. In (8-4), Tetrapodna (4-18-18) (the length of the cohesive protruding end is 4 bases) was used.

Data set [8] can be described thus: Release of encapsulated OVA from gel. It is filed as physicochemical. The following applies: DNA 0.5 mM, OVA 2.5 μg/μl. Here is the method: By controlling the nature and salt concentration of protruding ends of Tetrapodna, the change of the releasing rate of an encapsulated compound in a gel was examined. Specifically, Tetrapodna (4-18-18) (SEQ ID NOs.: 2, 4, 5 and 6) including a cohesive protruding end and Tetrapodna (4-18-18) (SEQ ID NOs.: 58, 59, 60 and 61) as a control including a non-cohesive protruding end were used. In an aqueous solution of Tetrapodna which had been prepared such that the DNA concentration was 0.5 mM, the NaCl concentration was adjusted to 5 mM or 150 mM. When the NaCl concentration was increased, egg albumin (OVA, concentration of 2.5 μg/μl) was added as an encapsulated substance to cause gelation, and then the percentage of OVA released from the gel with the passage of time was measured.

Data set [9] in a line: Evaluation of gelation at various DNA concentrations and NaCl concentrations. It is filed as physicochemical. Details: key: ◯: the mark “∘” is given to cases in which gelation was observed; X: the mark “x” is given to cases of a solution state (sol-state). On the procedure: […] The gel formation and the gel strength were measured by a gel strength analyzer (gel strength meter, Nakayamadenki Co., Ltd, Osaka).
Specifically, by changing the DNA concentrations of an aqueous solution of Tripodona (4-18-18) (X=4) (SEQ ID NOs.: 1, 2 and 3), Tetrapodna (4-18-18) (X=4) (SEQ ID NOs.: 2, 4, 5 and 6), Hexapodna (4-18-18) (X=4) (SEQ ID NOs.: 2, 3, 4, 7, 9 and 10) and Tetrapodna (8-16-16) (X=8) (SEQ ID NOs.: 22, 23, 24 and 25) as shown in the lines of Table 4, and by changing the NaCl concentration as shown in the rows of Table 4, whether or not a gel is formed at various DNA concentrations and NaCl concentrations was evaluated. The results are shown such that the mark “∘” is given to cases in which gelation was observed, and the mark “x” is given to cases of a solution state (sol-state).

The nature of data set [10]: Gel formation in a living body after subcutaneous injection of sol. It is filed as in vivo. To be noted: total DNA 2 mM, NaCl 5 mM, back of mouse. An excerpt:
The hydrogel produced in Example 1 was able to be prepared in a sol state by appropriately adjusting conditions. Therefore, the hydrogel was able to be administered in a living body by injection. […] Thus, it was confirmed that a gel is formed in a living body only by preparing the hydrogel in accordance with the present invention in a sol state and administering the hydrogel to a living body.

Data set [11] in a line: Formation of hydrogel from nucleic acid units without ligase. It is filed as physicochemical. The following applies: without DNA ligase. On the procedure: A NaCl solution was added to an ODN solution (polypodna) such that the final Na^+ concentration was 5 to 150 mM. The gel formation and the gel strength were measured by a gel strength analyzer (gel strength meter, Nakayamadenki Co., Ltd, Osaka).
A structure to be a hydrogel (a nucleic acid monomer and an estimated nucleic acid unit) in conditions at room temperature, at 5 mM to 150 mM sodium chloride concentration (150 mM is substantially physiological concentration), and not containing a DNA ligase was elucidated. […] For convenience, nucleic acid units estimated to be formed according to the number of nucleic acid monomers capable of constituting the nucleic acid unit were represented by xxxpodna (xxxpod-like structure forming nucleic acid, xxx is substituted by tri (3), tetra (4) and the like, according to the number of nucleic acid monomers capable of constituting the nucleic acid unit). In Table 2 described below, xxxpodna is an estimated nucleic acid unit, and each of xxx-Y-N is a nucleic acid monomer that can be a constituent element of the nucleic acid unit (xxxpodna) which is mentioned above thereof. When the descriptions of Ys are different from each other, different nucleic acid units can be formed. N denotes numbering of nucleic acid monomers constituting each of the estimated nucleic acid units.
Unlike (1-1) described above, gelation can be controlled by using a nucleic acid monomer including cohesive protruding ends which are not attached to themselves (that is, not palindrome sequence).

B1: dsDNA36: double strand of dsDNA36-1 and dsDNA36-2, SEQ ID Nos. 108 and 109 (nucleic acid)
chain 1: TCGCTGACGTTGCAGACATCACGTTGACGCTGTCGA
chain 2: TCGACAGCGTCAACGTGATGTCTGCAACGTCAGCGA
modifications: unmodified DNA
Turning to B1, in data set [1], the Tm was 66.5 °C. Further, the TNF-α release result in the data set on RAW264.7 cells [2] was “the TNF-α release hardly occurred”.

B2: Chol-CpG DNA: Tetrapodna (SEQ ID NOs.: 2, 4, 5 and 6) which contains a cholesterol-modified nucleic acid monomer and a CpG motif (conjugate)
DNA 1: ACGTTCGACAGCGTCAACGTGAAACGTGAAGCGTCTGCGA
DNA 2: ACGTTCGCTGACGTTGCAGACATCACGTTGACGCTGTCGA
DNA 3: ACGTTCGCAGACGCTTCACGTTGCAGACAGACGTTGACGA
DNA 4: ACGTTCGTCAACGTCTGTCTGCTGTCTGCAACGTCAGCGA
modifications: DNA, phosphodiester; one monomer cholesterol-modified, strand and position not given here
B2: the “uptake by RAW264.7 cells” value with RAW264.7 cells [3] is listed as “incorporated into RAW264.7 cells better than Tetrapodna as a control which does not have cholesterol modification”. Moreover, in [4] (applied to skin), the tissue transferability result was “increased”. The skin inflammation entry in data set [4] is given as “better suppressed”.

B3: Tetrapodna(4-18-18): four ODNs, SEQ ID NOs.: 2, 4, 5 and 6, 4-base cohesive protruding end, contains CpG motif (nucleic acid)
DNA 1: ACGTTCGACAGCGTCAACGTGAAACGTGAAGCGTCTGCGA
DNA 2: ACGTTCGCTGACGTTGCAGACATCACGTTGACGCTGTCGA
DNA 3: ACGTTCGCAGACGCTTCACGTTGCAGACAGACGTTGACGA
DNA 4: ACGTTCGTCAACGTCTGTCTGCTGTCTGCAACGTCAGCGA
modifications: unmodified DNA
B3: the “production of IFN-γ by splenocytes stimulated with OVA” value in the data set with splenocytes is reported as “remarkable increase in production amount of IFN-γ”. In addition, the “temperature at which gel is present” value is “gel at 45 °C” in data set [5] (DNA concentration 0.4-0.5 mM) and “gel at 55 °C” in data set [5] (DNA concentration 0.6-0.8 mM). The “temperature at which sol is present” value in [5] (DNA concentration 0.4-0.5 mM) is “sol at 55 °C”; in [5] (DNA concentration 0.6-0.8 mM), “sol at 65 °C”. The “immunological stimulation of dendritic cell” value in data set [6] was “significantly immunologically stimulated a mouse dendritic cell”. Moreover, the “percentage of the remaining gels with the passage of time” value in [7] (NaCl 150 mM) is reported as “a gel became a sol with the passage of time”. The “percentage of the remaining gels” value in data set [7] (NaCl 150 mM, 12 hours) was “about 50%”. The “percentage of the remaining gels, dependence on salt concentration” value in data set [7] (NaCl 5, 50, 100 or 150 mM) is “as the salt concentration is higher, it tends to be present not in a sol but in a gel”. Further, the “release of OVA from the gel” value in [8] (NaCl 5 mM) was “all OVA was released for a short time”. For the same molecule, the “percentage of OVA released” value in data set [8] (NaCl 150 mM, 24 hours) is reported as “about 60%”. The gelation entry was “◯” in [9] (Na+ 2 mM, DNA 0.8 mM); “X” in [9] (Na+ 20 mM, DNA 0.6 mM); “X” in [9] (Na+ 20 mM, DNA 0.7 mM); “◯” in data set [9] (Na+ 50 mM, DNA 0.6 mM); “◯” in data set [9] (Na+ 50 mM, DNA 0.7 mM); “X” in data set [9] (Na+ 100 mM, DNA 0.5 mM). In addition, the gelation entry is “X” in data set [9] (Na+ 150 mM, DNA 0.4 mM) and “◯” in [9] (Na+ 150 mM, DNA 0.5 mM). Moreover, the “gel formation in a living body” value in data set [10] is “gelation occurred in a living body after administration”. Moreover, the gel formation result in data set [11] is “gels can be prepared”.
